According to patent US20250277029A1, “CANNABINOID TYPE 1 RECEPTOR BINDING PROTEINS AND USES THEREOF” (AMGEN INC., priority 2022, published 2025):
Numbering of substitutions follows the chain as printed.

T1: XCR1-SMALP (Homo sapiens, UniProt P46094)
T1 sequence (P46094 1-333): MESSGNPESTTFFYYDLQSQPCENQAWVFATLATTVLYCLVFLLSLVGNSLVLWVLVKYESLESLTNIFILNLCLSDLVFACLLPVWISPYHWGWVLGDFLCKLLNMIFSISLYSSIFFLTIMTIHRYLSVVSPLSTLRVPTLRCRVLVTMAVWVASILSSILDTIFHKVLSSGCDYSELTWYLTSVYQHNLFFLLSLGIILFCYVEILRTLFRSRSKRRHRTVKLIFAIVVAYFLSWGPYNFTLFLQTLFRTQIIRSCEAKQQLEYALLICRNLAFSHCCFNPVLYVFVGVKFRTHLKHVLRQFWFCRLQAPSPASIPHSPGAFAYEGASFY

B1: LIBC680574-1: further VK1 LC-optimized variant; HV SEQ ID NO: 460, LV SEQ ID NO: 459; 52778 in YTE format (antibody, V domains shown)
VH: QVQLQESGPGLVKPSQTLSLTCTVSGGSIRRGGDYWAWIRQHPGKGLEWIGHVYYTGSTKYNPSFKDRATISVNTYKNQFSLKLSSVTAADTAVYYCARNYDTLTGYSYYYYGMDVWGQGTTVTVSS
VL: DIQMTQSPSSLSASVGDRVTITCRASQSISSYLNWYQQKPGKAPKLLIYGARRLGSGVPSRFSGSGSGTDFTLTISSLQPEDFATYYCQQYSSLPVTFGGGTKVEIKR
modifications: YTE Fc format
notes: further VK1 LC-optimized variant; 52778 in YTE format
B2: LIBC680812-1: further VK1 LC-optimized affinity-matured variant (antibody, V domains shown)
VH: B1 VH with A37G, Y55Q
VL: B1 VL with G50S, G55S, S92R, L94Y, V96I
B3: LIBC680562-1: further VK1 LC-optimized affinity-matured variant (antibody, V domains shown)
VH: B1 VH with V53I, Y55Q, K60N, S64R, D67G
VL: B1 VL with G50S, G55S, S92A, S93K, L94S, V96I
B4: LIBC681593-1: further VK1 LC-optimized affinity-matured variant (antibody, V domains shown)
VH: B1 VH with V53I, Y55Q, K60N, S64R, D67G
VL: B1 VL with G50N, S92R, L94S
B5: LIBC680800-1: further VK1 LC-optimized affinity-matured variant (antibody, V domains shown)
VH: B1 VH with V53I, Y55Q, K60N, S64R, D67G
VL: B1 VL with G50S, R53A, G55S, S92R, S93K, L94F, V96L
B6: LIBC673952-1: further cognate affinity-matured variant; HV SEQ ID NO: 368, LV SEQ ID NO: 367; 52777 in YTE format (antibody, V domains shown)
VH: B1 VH with A37S, S58Q, K60T, K66R, D67G, A69V, N100D, T103I, M114L
VL: DIVMTQSPLSLPVTPGEPASISCRSSQSLLHRSGYNYLDWYLQKPGQSPQLLIYQGSNRASGVPDRFSGSGSGTDFTLKISRVEAEDVGVYYCRQARALPRTFGQGTKVEIKR
modifications: YTE Fc format
notes: 52777 in YTE format
B7: LIBC674090-1: further cognate affinity-matured variant (antibody, V domains shown)
VH: QVQLQESGPGLVKPSQTLSLTCTVSGGSIRRGGDYWSWIRQHPGKGLEWIGHIYYAGSTAYNPNFRGRVRISVNTYKNQFSLKLSSVTAADTAVYYCARGYDTSGYSYYYYGLDVWGQGTTVTVSS
VL: B6 VL with R94M, A96S, R97L, A98Q, L99T
B8: LIBC674200-1: further cognate affinity-matured variant (antibody, V domains shown)
VH: B7 VH with I53V, A56T, S58Q, G67N, T103V, L113M
VL: B6 VL with Q55L, D65G, R94M, A96S, R97L, A98Q, L99T
B9: LIBC674229-1: further cognate affinity-matured variant (antibody, V domains shown)
VH: B7 VH with Y55Q, A56T, S58Q, A60K, N64S, R66K, T103V, L113M
VL: B6 VL with R94M, A96S, R97L, A98Q, L99T
B10: LIBC527814-1: LC-swapped affinity-matured 10D10 variant; HV SEQ ID NO: 236, LV SEQ ID NO: 235 (antibody, V domains shown)
VH: B1 VH with A37G, Y55Q
VL: DIQMTQSPSTLSASVGDRVTITCRASQSISNYLNWYQQKPGKAPKLLIYAASSLHSGVPSRFSGSGSGTDFTLTISSLQPEDFASYYCQQYQSYPLTFGQGTKVEIKR
B11: LIBC523661-1: cognate affinity-matured 10D10 variant; HV SEQ ID NO: 98, LV SEQ ID NO: 97 (antibody, V domains shown)
VH: B1 VH with A37S, V53I, T56E, D67G, N100D, T103P, L104V, Y107H
VL: B6 VL with H31T, R32S, L38V, L99I
B12: LIBC527997-1: LC-swapped affinity-matured 10D10 variant; HV SEQ ID NO: 226, LV SEQ ID NO: 225 (antibody, V domains shown)
VH: B1 VH with V53I, Y55Q, K60N, S64R, D67G
VL: B10 VL with T10S
B13: LIBC527919-1: LC-swapped affinity-matured 10D10 variant; HV SEQ ID NO: 252, LV SEQ ID NO: 251 (antibody, V domains shown)
VH: B1 VH with Y55Q, K60A, S64N, T103A, T105S
VL: B1 VL with M4L, S30I, G50A, R52S, R53S, G55R, S93N, L94Y, V96L, K103R

molecular target: T1, XCR1-SMALP; assay: Yeast-display non-specific binding to irrelevant XCR1-SMALP; details: 25 nM; fold change compared to LIBC528116 (Fab), after background subtraction
Description: All eighteen cognate variants met the stringent binding improvement threshold against huCB1I-GFP-SMALP and had minimal binding to irrelevant XCR1-SMALP and empty-ND (Table 32). […] For LIBC674043-1 and LIBC674200-1, VH R149S and VL G76D germline reversion mutations were also included in the panel of IgG1 SEFL2 mAbs produced for functional testing.

First: B1
Second: B2
The “25 nM XCR1-SMALP-GFP, relative binding fold change” value of the first is lower: 0.56 for the first, 0.59 for the second.

Going from B3 to B4, the “25 nM XCR1-SMALP-GFP, relative binding fold change” value rises from 0.64 to 0.72.

For B5, the “25 nM XCR1-SMALP-GFP, relative binding fold change” value was 0.47.

same assay, conditions: 50 nM; fold change compared to LIBC523797-1(Fab), after background subtraction

Going from B6 to B7, the “50 nM XCR1 SMALP, relative binding fold change” value rises from 0.59 to 0.74.

First: B8
Second: B9
The “50 nM XCR1 SMALP, relative binding fold change” value of the first is lower: 0.79 for the first, 0.80 for the second.

tested on: CB1-nanodisc; assay: Octet affinity assay with CB1-nanodisc; type: binding, human; details: 1:1 Langmuir model
Procedure: Affinity assay using Octet. The Octet@HTX (Sartorius, Germany) instrument was used to determine affinities of anti-CB1 antibodies. Prior to experiment, Streptavidin (SA) biosensors (ForteBio, #18-5021) were pre-hydrated for 10 min in Octet assay buffer containing 10 mM Tris (Fisher, #BP152-1), 150 mM NaCl (Fisher, #5271-10), 1 mM CaCl2) (Fisher, #BP510-500), 0.1 mg/mL BSA (BioShop, #ALB001.1), and 0.1% Triton-X 100 (Calbiochem, #9410-OP), pH7.4. SA biosensors were loaded with biotinylated anti-human Fc antibody (Invitrogen, #A18827) followed by one baseline step of 60 s in Octet assay buffer. Anti-CB1 antibodies were prepared in Octet assay buffer and captured by the anti-human Fc antibody prior to being submerged in wells containing different concentrations of CB1-nanodisc (#CB1-008, in-house) for 5 min, followed by 10 min dissociation. […] SA biosensors were used once without regeneration. For data evaluation, ForteBio Data Analysis v11.0 software was used. The kinetic rate constants, association rate constant (ka, M−1s−1), dissociation rate constant (kd, s−1), and the equilibrium rate constant (KD, M) were determined by using a 1:1 Langmuir model.

B10 and B11 are within 1.5-fold of each other in “Octet (nanodisc) k off” value: 0.00198 s⁻¹ for the first, 0.00275 s⁻¹ for the second.

First: B12
Second: B13
The “Octet (nanodisc) k off” value of the first is 2.5-fold lower: 0.00136 s⁻¹ for the first, 0.00339 s⁻¹ for the second.

First: B10
Second: B11
The “Octet (nanodisc) k on” value of the first is 1.6-fold higher: 56600 M⁻¹ s⁻¹ for the first, 35700 M⁻¹ s⁻¹ for the second.

B12 and B13 are within 1.5-fold of each other in “Octet (nanodisc) k on” value: 51800 M⁻¹ s⁻¹ for the first, 56200 M⁻¹ s⁻¹ for the second.

tested on: diet-induced obese (DIO) huCB1 knock in (KI) mice; assay: Diet-induced obese huCB1 knock in mice, 30 mg/kg QW for 35 days: body weight, food intake, fat mass, liver weight; type: in vivo, mouse; details: YTE format
Procedure: The further affinity matured antibodies LIBC673952 (52777) and LIBC680574 (52778) in YTE format (Dall'Acqua et al., The Journal of Immunology, 169: 5171-5180 (2002)) was scaled up for testing in diet-induced obese (DIO) transgenic mice with huCB1 knocked in. […] The antibodies (52777, 52778, and 37940) and a control antibody (huIgG control) were administered to the mice at 30 mg/kg QW for 35 days, and the body weight and food intake of the animals were measured every 3-4 days and the results are shown in FIGS. 10A and 10B.

B6 was tested, and the “average daily food intake” value was “did not change significantly”.
B1 was tested, and the “average daily food intake” value was “did not change significantly”.

With B6 the “body weight of the animals” value was “reduced body weight”.
For B1, the “body weight of the animals” value was “reduced body weight”.
